# Reference: publication PMC11359509, “Anti-Skin Aging Potential, Antibacterial Activity, Inhibition of Single-Stranded DNA-Binding Protein, and Cytotoxic Effects of Acetone-Extracted Passiflora edulis (Tainung No. 1) Rind Extract on Oral”
# Biological target: KpSSB (single-stranded DNA-binding protein) (Klebsiella pneumoniae, UniProt A6TGW7 1-174)
# Experiment: EMSA; no extract; [Protein]50; 40 mM Tris-HCl pH 7.5, 50 mM NaCl, 37 °C, 60 min; 30 fmol/uL biotinylated ssDNA; 8% native PAGE in TBE
# Settings: protein: recombinant, tag not described, chain copies: 4
# Chain of KpSSB (single-stranded DNA-binding protein) (A6TGW7 whole entry): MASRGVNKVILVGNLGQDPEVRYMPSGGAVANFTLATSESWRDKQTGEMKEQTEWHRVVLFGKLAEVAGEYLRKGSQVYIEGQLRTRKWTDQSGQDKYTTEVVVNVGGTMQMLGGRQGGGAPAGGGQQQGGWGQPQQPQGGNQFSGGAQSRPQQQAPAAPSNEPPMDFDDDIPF
binder,measurement,value
TTTTTTTTTTTTTTTTTTTTTTTTTTTTTTTTTTT (ssDNA) [dT35],apparent K (half saturation),206 ± 14.3 nM
